# Data: patent US7829082B2, “Catheter composition and uses thereof” (Genentech, Inc., priority 2001, dated 2010)
# Values joined by “and” are separate entries in the source; they are usually repeats but may differ in a detail not shown here. Equal entries are not always repeated.
# Tests used:
# [1] = Tenecteplase concentration by RP-HPLC before and after centrifugation; type: physicochemical; conditions: for Conc. (+cent) by RP-HPLC: after centrifugation; for Conc. (−cent) by RP-HPLC: before centrifugation
# Method: (§1) Tenecteplase (TNKASE™ variant of t-PA), obtained from Genentech, Inc. (e.g., U.S. Pat. No. 5,612,029) (50 mg/vial) was reconstituted to 5 mg/mL with 10 mL of SWFI. Using a 3 & 5 cc syringe and 22 G needle, 1, 2, and 5 mL of normal saline (NS) was removed from separate IV bags (500 mL NS, Baxter), in duplicates. The same volume was replaced with the reconstituted drug product to give a final tenecteplase concentration inside the bags of 0.01, 0.02, and 0.05 mg/mL. The bags were then mixed gently by inversions. A 10-mL aliquot of the diluted tenecteplase solution was sampled via the IV port with a 10-cc syringe and dispensed into two 5-cc clean clear glass vials (6 mL in one and the remaining in the other). The IV bags containing the diluted tenecteplase were placed on a bench top under normal fluorescent light at ambient conditions for 24 hours. Additional aliquots (10 mL each) from these IV bags were sampled after 8 and 24 hours of storage.
# The clot lysis activity and protein concentrations (determined by RP-HPLC) were performed before and after centrifugation of each sample aliquot. This was to ensure that any precipitation that was not visible to the naked eye was removed prior to assay for more accurate interpretation of the results. […] At 0.01 mg/mL, the percent change in concentration was 57% immediately after dilution and increased to 71% after 24 hours. […] This observation can be explained, without being limited to any one theory, by a more pronounced protein adsorption at a lower concentration that usually occurs instantly and saturates with time.
# [2] = pH of tenecteplase dilutions; type: physicochemical; conditions: for observed pH: over 24 hours of storage at ambient conditions
# Method: as §1
# The pH determination was performed using a RADIOMETER PHM 93™ pH meter and a microelectrode (MI-410™, Microelectrode, Inc.). The pH meter was standardized with pH 4.01 and 7.00 buffer standards prior to measurement at ambient conditions.
# [3] = biological target: T1, in vitro clot consisting of plasminogen and fibrin (Homo sapiens, UniProt P00747+P02671+P02675+P02679); assay: Clot lysis assay of tenecteplase; type: biochemical; conditions: for overall percent specific activity of the recovered protein: over 24 hours at ambient conditions; for Clot lysis (+cent): after centrifugation; for Clot lysis (−cent): before centrifugation
# T1 construct: Plasminogen kept frozen at or below −60° C. until use; purchased Biocell (fibrinogen); Calbiochem (thrombin)
# From the text: The assay works as follows: Reagents are substances added to a solution of another substance to participate in a chemical reaction. In this case, contents of boat 1 will react with contents of boat 2 to form a standardized clot. Thrombin (boat 2), when mixed with plasminogen and fibrinogen (boat 1), causes the conversion of fibrinogen to fibrin and forms a standardized in vitro clot consisting of plasminogen and fibrin. A test sample of t-PA is then exposed to the clot. T-PA causes the conversion of plasminogen to plasmin, and plasmin then breaks apart the fibrin strands. As the clot breaks apart, there is a change in the absorbance (light) characteristics. The absorbance is plotted versus time.
# In such test, thrombin and fibrinogen are mixed together to produce fibrin; plasminogen and tenecteplase are mixed together to produce plasmin; and together the fibrin and plasmin lyse the clot. The test measures the effectiveness of tenecteplase to act with plasminogen to form plasmin and thus lyse the clot.
# as §1
# All the aliquots of tenecteplase were subjected to the clot lysis assay described above to determine the in vitro bioactivity of tenecteplase in these aliquots. The samples were diluted to two or three different concentrations within assay range (200-500 ng/mL) with the diluent. Tenecteplase was used as an internal reference. All values obtained were normalized to the tenecteplase reference material. The bioactivity was assayed by clot lysis before and after centrifugation.
# [4] = targeted conc. 0.01 mg/mL in 0.9% NaCl IV bag, T = 0
# [5] = targeted conc. 0.01 mg/mL in 0.9% NaCl IV bag, T = 8 hours ambient
# [6] = targeted conc. 0.01 mg/mL in 0.9% NaCl IV bag, T = 24 hours ambient
# [7] = targeted conc. 0.02 mg/mL in 0.9% NaCl IV bag, T = 0
# [8] = targeted conc. 0.02 mg/mL in 0.9% NaCl IV bag, T = 8 hours ambient
# [9] = targeted conc. 0.02 mg/mL in 0.9% NaCl IV bag, T = 24 hours ambient
# [10] = targeted conc. 0.05 mg/mL in 0.9% NaCl IV bag, T = 0
# [11] = targeted conc. 0.05 mg/mL in 0.9% NaCl IV bag, T = 8 hours ambient
# [12] = targeted conc. 0.05 mg/mL in 0.9% NaCl IV bag, T = 24 hours ambient
# T1 sequence (P00747 20-810 limits assumed): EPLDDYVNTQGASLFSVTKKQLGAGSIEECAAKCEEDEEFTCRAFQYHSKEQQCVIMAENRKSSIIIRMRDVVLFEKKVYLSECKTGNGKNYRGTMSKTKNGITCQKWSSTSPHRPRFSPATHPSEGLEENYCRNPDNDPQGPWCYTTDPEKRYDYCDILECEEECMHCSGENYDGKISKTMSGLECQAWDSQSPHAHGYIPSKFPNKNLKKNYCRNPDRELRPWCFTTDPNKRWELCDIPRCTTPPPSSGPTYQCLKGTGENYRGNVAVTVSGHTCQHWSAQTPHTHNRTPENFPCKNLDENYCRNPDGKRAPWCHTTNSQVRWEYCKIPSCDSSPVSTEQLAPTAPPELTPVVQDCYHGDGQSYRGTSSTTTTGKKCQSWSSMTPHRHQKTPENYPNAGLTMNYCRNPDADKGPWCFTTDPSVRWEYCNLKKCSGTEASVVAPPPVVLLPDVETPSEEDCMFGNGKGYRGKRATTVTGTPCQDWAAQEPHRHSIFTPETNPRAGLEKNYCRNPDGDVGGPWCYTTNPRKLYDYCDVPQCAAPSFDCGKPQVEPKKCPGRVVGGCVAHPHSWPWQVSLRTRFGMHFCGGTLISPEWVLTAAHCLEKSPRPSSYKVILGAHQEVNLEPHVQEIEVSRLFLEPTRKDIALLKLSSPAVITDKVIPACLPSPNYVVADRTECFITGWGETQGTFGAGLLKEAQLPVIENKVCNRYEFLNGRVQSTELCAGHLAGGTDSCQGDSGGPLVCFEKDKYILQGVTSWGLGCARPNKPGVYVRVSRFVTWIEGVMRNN
# T1 sequence (P02671 36-629 limits assumed): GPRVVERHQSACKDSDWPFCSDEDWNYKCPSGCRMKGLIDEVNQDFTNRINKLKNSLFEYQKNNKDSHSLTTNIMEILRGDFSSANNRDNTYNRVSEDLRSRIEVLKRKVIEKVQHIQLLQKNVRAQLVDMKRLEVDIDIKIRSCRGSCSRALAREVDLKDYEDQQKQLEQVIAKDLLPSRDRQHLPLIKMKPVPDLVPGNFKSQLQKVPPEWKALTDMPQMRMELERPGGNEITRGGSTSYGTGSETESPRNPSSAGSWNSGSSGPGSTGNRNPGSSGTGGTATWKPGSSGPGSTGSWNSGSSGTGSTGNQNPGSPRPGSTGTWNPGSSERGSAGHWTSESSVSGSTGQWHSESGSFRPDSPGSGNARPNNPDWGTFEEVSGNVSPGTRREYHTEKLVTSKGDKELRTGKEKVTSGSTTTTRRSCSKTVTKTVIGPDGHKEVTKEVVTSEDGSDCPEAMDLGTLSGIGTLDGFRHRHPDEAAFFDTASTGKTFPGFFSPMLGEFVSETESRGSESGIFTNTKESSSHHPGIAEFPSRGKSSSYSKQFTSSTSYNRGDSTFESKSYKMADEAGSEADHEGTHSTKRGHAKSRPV
# T1 sequence (P02675 45-491 limits assumed): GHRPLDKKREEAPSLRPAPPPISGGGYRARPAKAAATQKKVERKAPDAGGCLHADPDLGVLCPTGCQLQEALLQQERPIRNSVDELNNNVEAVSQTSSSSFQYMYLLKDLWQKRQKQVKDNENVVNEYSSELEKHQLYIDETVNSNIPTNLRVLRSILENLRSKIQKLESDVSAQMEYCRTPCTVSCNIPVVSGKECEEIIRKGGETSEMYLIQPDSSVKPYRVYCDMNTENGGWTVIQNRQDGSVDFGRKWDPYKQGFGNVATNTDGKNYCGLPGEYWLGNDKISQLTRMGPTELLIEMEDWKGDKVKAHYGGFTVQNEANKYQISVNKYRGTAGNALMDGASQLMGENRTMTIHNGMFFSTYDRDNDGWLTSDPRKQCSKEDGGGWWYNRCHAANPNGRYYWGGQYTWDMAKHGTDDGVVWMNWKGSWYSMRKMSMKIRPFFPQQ
# T1 sequence (P02679 27-437 isoform P02679-2 limits assumed): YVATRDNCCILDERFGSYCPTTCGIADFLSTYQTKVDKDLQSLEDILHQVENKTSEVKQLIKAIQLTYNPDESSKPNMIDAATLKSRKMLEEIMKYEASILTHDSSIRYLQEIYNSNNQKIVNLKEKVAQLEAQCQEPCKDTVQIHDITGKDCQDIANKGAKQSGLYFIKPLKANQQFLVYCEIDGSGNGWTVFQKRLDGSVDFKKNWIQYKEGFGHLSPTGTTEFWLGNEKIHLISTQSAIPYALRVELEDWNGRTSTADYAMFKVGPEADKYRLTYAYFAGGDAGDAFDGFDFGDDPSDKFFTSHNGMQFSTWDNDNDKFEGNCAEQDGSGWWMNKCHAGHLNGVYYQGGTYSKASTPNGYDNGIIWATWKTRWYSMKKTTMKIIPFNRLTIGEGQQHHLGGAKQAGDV
molecule,measurement,setting,value
"Tenecteplase: a t-PA variant designated T103N, N117Q, K296A, H297A,R298A,R299A available as TNKASE™ brand from Genentech, Inc.; diluted in 0.9% NaCl (protein, UniProt P00750 36-562, looked up, variant T103N N117Q K296A H297A R298A R299A) Tissue-type plasminogen …: SYQVICRDEKTQMIYQQHQSWLRPVLRSNRVEYCWCNSGRAQCHSVPVKSCSEPRCFNGGTCQQALYFSDFVCQCPEGFAGKCCEIDTRATCYEDQGISYRGNWSTAESGAECTNWQSSALAQKPYSGRRPDAIRLGLGNHNYCRNPDRDSKPWCYVFKAGKYSSEFCSTPACSEGNSDCYFGNGSAYRGTHSLTESGASCLPWNSMILIGKVYTAQNPSAQALGLGKHNYCRNPDGDAKPWCHVLKNRRLTWEYCDVPSCSTCGLRQYSQPQFRIKGGLFADIASHPWQAAIFAAAAASPGERFLCGGILISSCWILSAAHCFQERFPPHHLTVILGRTYRVVPGEEEQKFEVEKYIVHKEFDDDTYDNDIALLQLKSDSSRCAQESSVVRTVCLPPADLQLPDWTECELSGYGKHEALSPFYSERLKEAHVRLYPSSRCTSQHLLNRTVTDNMLCAGDTRSGGPQANLHDACQGDSGGPLVCLNDGRMTLVGIISWGLGCGQKDVPGVYTKVTNYLDWIRDNMRP",% Change in Conc. (±cent),[1]; [4],57%
same,Conc. (+cent) by RP-HPLC,[1]; [4],4000 ng/mL
same,Conc. (−cent) by RP-HPLC,[1]; [4],7000 ng/mL
same,% Change in Conc. (±cent),[1]; [5],57% and 63%
same,Conc. (+cent) by RP-HPLC,[1]; [5],4000 ng/mL and 5000 ng/mL
same,Conc. (−cent) by RP-HPLC,[1]; [5],7000 ng/mL and 8000 ng/mL
same,% Change in Conc. (±cent),[1]; [6],71%
same,Conc. (+cent) by RP-HPLC,[1]; [6],5000 ng/mL
same,Conc. (−cent) by RP-HPLC,[1]; [6],7000 ng/mL
same,% Change in Conc. (±cent),[1]; [7],76%
same,Conc. (+cent) by RP-HPLC,[1]; [7],13000 ng/mL
same,Conc. (−cent) by RP-HPLC,[1]; [7],17000 ng/mL
same,% Change in Conc. (±cent),[1]; [8],81%
same,Conc. (+cent) by RP-HPLC,[1]; [8],13000 ng/mL
same,Conc. (−cent) by RP-HPLC,[1]; [8],16000 ng/mL
same,% Change in Conc. (±cent),[1]; [9],81%
same,Conc. (+cent) by RP-HPLC,[1]; [9],13000 ng/mL
same,Conc. (−cent) by RP-HPLC,[1]; [9],16000 ng/mL
same,% Change in Conc. (±cent),[1]; [10],94% and 98%
same,Conc. (+cent) by RP-HPLC,[1]; [10],45000 ng/mL and 46000 ng/mL
same,Conc. (−cent) by RP-HPLC,[1]; [10],48000 ng/mL and 47000 ng/mL
same,% Change in Conc. (±cent),[1]; [11],96%
same,Conc. (+cent) by RP-HPLC,[1]; [11],45000 ng/mL
same,Conc. (−cent) by RP-HPLC,[1]; [11],47000 ng/mL
same,% Change in Conc. (±cent),[1]; [12],90% and 96%
same,Conc. (+cent) by RP-HPLC,[1]; [12],43000 ng/mL and 44000 ng/mL
same,Conc. (−cent) by RP-HPLC,[1]; [12],48000 ng/mL and 46000 ng/mL
same,observed pH,[2]; 0.01 mg/mL in NS,6.7-6.8
same,observed pH,[2]; 0.02 mg/mL in NS,6.8-6.9
same,observed pH,[2]; 0.05 mg/mL in NS,7.1-7.2
same,pH,[2]; [4],6.70 and 6.73
same,pH,[2]; [6],6.77 and 6.71
same,pH,[2]; [7],6.93 and 6.83
same,pH,[2]; [9],6.86 and 6.90
same,pH,[2]; [10],7.12 and 7.15
same,pH,[2]; [12],7.10 and 7.07
same,overall percent specific activity of the recovered protein,[3]; 0.01 mg/mL,≥ 100%
same,overall percent specific activity of the recovered protein,[3]; 0.02 mg/mL,≥ 92%
same,overall percent specific activity of the recovered protein,[3]; 0.05 mg/mL,≥ 80%
same,Lytic activity in clot lysis effectiveness test,[3]; diluted down to 0.01 mg/mL in normal saline,lytically active
same,Lytic activity after storage,"[3]; diluted to 0.01, 0.02, and 0.05% mg/mL in 0.9% NaCl IV bags (500 mL), after 24 hours of storage at ambient conditions",lytically active
same,% Specific Activity,[3]; [4],100%
same,Clot lysis (+cent),[3]; [4],0.004 mg/mL
same,Clot lysis (−cent),[3]; [4],0.006 mg/mL
same,% Specific Activity,[3]; [5],125% and 120%
same,Clot lysis (+cent),[3]; [5],0.005 mg/mL and 0.006 mg/mL
same,Clot lysis (−cent),[3]; [5],0.007 mg/mL and 0.008 mg/mL
same,% Specific Activity,[3]; [6],100% and 120%
same,Clot lysis (+cent),[3]; [6],0.005 mg/mL and 0.006 mg/mL
same,Clot lysis (−cent),[3]; [6],0.007 mg/mL
same,% Specific Activity,[3]; [7],92%
same,Clot lysis (+cent),[3]; [7],0.012 mg/mL
same,Clot lysis (−cent),[3]; [7],0.015 mg/mL
same,% Specific Activity,[3]; [8],92%
same,Clot lysis (+cent),[3]; [8],0.012 mg/mL
same,Clot lysis (−cent),[3]; [8],0.015 mg/mL and 0.013 mg/mL
same,% Specific Activity,[3]; [9],100% and 92%
same,Clot lysis (+cent),[3]; [9],0.013 mg/mL and 0.012 mg/mL
same,Clot lysis (−cent),[3]; [9],0.015 mg/mL and 0.016 mg/mL
same,% Specific Activity,[3]; [10],82% and 78%
same,Clot lysis (+cent),[3]; [10],0.037 mg/mL and 0.036 mg/mL
same,Clot lysis (−cent),[3]; [10],0.040 mg/mL and 0.041 mg/mL
same,% Specific Activity,[3]; [11],76% and 82%
same,Clot lysis (+cent),[3]; [11],0.034 mg/mL and 0.037 mg/mL
same,Clot lysis (−cent),[3]; [11],0.039 mg/mL
same,% Specific Activity,[3]; [12],93% and 91%
same,Clot lysis (+cent),[3]; [12],0.040 mg/mL
same,Clot lysis (−cent),[3]; [12],0.043 mg/mL
